Reference: patent US20250206818A1 (AGENUS, published 2025)

T1: human LAG-3 (human, UniProt P18627 23-450, limits assumed)
T1 construct: Selections used human LAG-3-Fc, human LAG-3-6His, a 30 aa LAG-3 peptide and/or cells with cynomolgus LAG-3; also called CD223
T1 sequence (looked up): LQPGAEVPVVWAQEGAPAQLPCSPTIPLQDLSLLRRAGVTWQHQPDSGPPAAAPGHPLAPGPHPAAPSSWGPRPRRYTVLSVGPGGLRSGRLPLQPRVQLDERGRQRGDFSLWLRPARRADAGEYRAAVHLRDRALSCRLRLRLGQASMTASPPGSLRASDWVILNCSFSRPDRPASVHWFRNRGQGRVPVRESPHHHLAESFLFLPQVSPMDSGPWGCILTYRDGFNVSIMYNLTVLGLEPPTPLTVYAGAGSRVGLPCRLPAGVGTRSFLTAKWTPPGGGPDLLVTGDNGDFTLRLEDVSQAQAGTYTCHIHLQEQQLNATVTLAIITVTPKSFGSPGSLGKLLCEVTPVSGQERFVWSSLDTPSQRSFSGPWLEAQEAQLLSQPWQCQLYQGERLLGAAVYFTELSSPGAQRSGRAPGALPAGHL

T2: human LAG-3 expressed on cells (human, UniProt P18627 23-525)
T2 construct: whole, on cells; also called CD223
T2 sequence (looked up): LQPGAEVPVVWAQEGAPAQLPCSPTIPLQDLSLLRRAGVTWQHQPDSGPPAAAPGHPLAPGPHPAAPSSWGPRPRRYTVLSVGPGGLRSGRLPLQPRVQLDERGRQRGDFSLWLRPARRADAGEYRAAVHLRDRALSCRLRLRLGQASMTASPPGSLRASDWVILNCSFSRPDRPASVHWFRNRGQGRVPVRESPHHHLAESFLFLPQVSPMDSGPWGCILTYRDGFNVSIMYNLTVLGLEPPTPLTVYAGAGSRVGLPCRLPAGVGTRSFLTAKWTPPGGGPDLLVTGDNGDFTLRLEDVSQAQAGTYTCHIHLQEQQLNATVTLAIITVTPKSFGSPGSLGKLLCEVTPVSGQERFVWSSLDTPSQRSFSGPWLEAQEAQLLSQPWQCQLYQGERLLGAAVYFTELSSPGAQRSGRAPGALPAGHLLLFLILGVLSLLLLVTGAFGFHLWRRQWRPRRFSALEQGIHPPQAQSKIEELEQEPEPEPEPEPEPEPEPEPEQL


Tests used:
[1] = target: T1, human LAG-3; assay: Fab phage display selection; periplasmic extracts screened by ELISA or flow cytometry
From the text: Anti-LAG-3 antibodies were identified by generation and selection of an immunized Fab phage display library. […] Per mouse, a Fab library was then generated by random-primed cDNA using total RNA as a template to amplify variable regions from mouse antibody genes. Heavy and kappa chain amplicons were combined and cloned into phagemid vectors. […] The 30 amino acid human LAG-3 peptide is a biotinylated peptide comprising the amino acid sequence of […] (SEQ ID NO: 199). Periplasmic extracts of selected Fab clones were then screened by ELISA or flow cytometry. Antibody sequencing and off-rate analysis were then performed on anti-LAG-3 Fabs.

[2] = target: T2, human LAG-3 expressed on cells; assay: flow cytometry, Fab periplasmic extract on Jurkat cells expressing human LAG-3 (FIGS. 1A-1C)
Description: The anti-LAG-3 Fabs from periplasmic extracts were tested for binding to LAG-3-expressing cells using flow cytometry. Briefly, wild type and human LAG-3-expressing Jurkat cells were plated at 2×10⁵ cells/well in sample buffer (PBS (Gibco, Cat #10010-015)+0.5% FBS (Gibco, Cat #10270-106)) in 96-well U-bottom plates (Sarstedt). 22 μl of anti-LAG-3 Fab periplasmic extract and 83 μl of diluted anti-c-myc antibody (Gentaur, Clone #9E10, Cat #04-cmyc-9E10) were incubated for 30 minutes at room temperature. 100 μl of the periplasmic extract/anti-c-myc mixture was added to cells and then incubated for one hour on ice. Cells were washed three times and then incubated with a goat anti-mouse APC (BD Biosciences, Cat #550826) for 30 minutes on ice. Cells were washed three times and then analyzed with a FACS machine (BD Accuri6).

Row | Binder | binding result [1] | binding result [2]
1 | P13B11 Fab (Fab, V domains shown, Murine Fab, periplasmic extract) VH: QVQLQQPGAELVKPGASVKLSCTASGFNIKDNYMDWVKQRPEQGLEWIGKIDPANGNTKYDPKFQGKATITADTSSNTAYLQLSSLTSEDTAVYYCATYYYRYDVGGFDYWGQGTTLTVS VL: QIVLTQSPALMAASPGEKVTITCSVSSSISSSNLHWFQQKSGTSPKLWIYGTSNLASGVPVRFSGSGSGTSYSLTISSMEAEDAATYYCQQWSSYPFTFGSGTKLEIK | binds | binds
2 | P01C09 Fab (Fab, V domains shown, Murine Fab, periplasmic extract) VH: QVQLKQSGAELVKPGASVKLSCTASGFNIKDTYMYWVKQRPEQGLEWIGRIDPANGNTKYDPKLQGKATITADTSSNTVYLQLSSLTSEDTAVFYCVIYSYRYDVGGFDYWGQGTTLTVS VL: EIVLTQSPALMAASPGEKVTITCSVSSSISSSNLHWYQQKSGTSPKLWIYGTSNLASGVPVRFSGSGSGTSYSLTISSMEAEDAATYYCQQWSSYPFTFGSGTKLEIK | binds | binds
3 | P13E02 Fab (Fab, V domains shown, Murine Fab, periplasmic extract) VH: QVQLQQPGAELVKPGASVKLSCTVSGFNIKDTYIHWVKQRPEQGLEWIGEIDPANGNSKYAPRFQGKATITADTSSNTAYLQLSSLTSEDTAVYYCATYYYRYDVGGFDYWGQGTTLTVS VL: ENVLTQSPALMAASPGEKVTITCSVSSSISSSNLHWFQQKSGTSPKLWIYGTSNLASGVPVRFSGSGSGTSYSLTISSMEAEDAATYYCQQWSSYPFTFGSGTKLEIK | binds | binds
4 | P13D04 Fab (Fab, V domains shown, Murine Fab, periplasmic extract) VH: QVQLQQSGAELVKPGASVKLSCTASGFNIKDNYMDWVKQRPEQGLEWIGKIDPANGNTKYDPKFQGKATITADTSSNTAYLQLSSLTSEDTAVYYCATYYYRYDVGGFDYWGQGTTLTVS VL: DIVLTQSPALMAASPGEKVTITCSVSSSISSSNLHWFQQKSGTPPKLWIYGTSNLASGVPVRFSGSGSGTSYSLTISSMEAEDAATYYCQQWSSYPFTFGSGTKLEIK | binds | binds
5 | P13F02 Fab (Fab, V domains shown, Murine Fab, periplasmic extract) VH: QVQLQQPGAELVKPGASVKLSCTASGFNIKDTYIHWVKQRPEQGLDWVGEIDPANGHTKYDPKFQGKATITADTSSNTAYLQLSSLTSEDTAVYYCATYYYRYDVGGFDYWGQGTTLTVS VL: ENVLTQSPALMAASPGEKVTITCSVSSSISSSNLHWFQQKSGTSPKLWIYGTSNLASGVPVRFSGSGSGTSYSLTISSMEAEDAATYYCQQWSSYPFTFGSGTKLEIK | binds | binds
6 | P13F09 Fab (Fab, V domains shown, Murine Fab, periplasmic extract) VH: QVQLQQSGAELVKPGASVKLSCTASGFNIKDNYIHWVKQRPEQGLEWIGSIDPANGNTKYDPKFQGKASITADTSSNTAYLQLSSLTSEGTAVYYCASYFYRYDVGGFDYWGQGTTLTVS VL: EIVLTQSPALMAASPGEKVTITCSVSSSISSSNLHWFQQKSGTSPKLWIYGTSNLASGVPVRFSGSGSGTSYSLTISSMEAEDAATYYCQQWSSYPFTFGSGTKLEIK | binds | binds
7 | P13H05 Fab (Fab, V domains shown, Murine Fab, periplasmic extract) VH: QVQLQQPGAELVKPGASVKLSCTASGFNIKDTYIHWVKQRPEQGLEWIGEIDPANDNTKYDPKFQGKATITADTSSNTAYLQLSSLTSEDTAVYYCATYYYRYDVGGFDYWGQGTTLTVS VL: ENVLTQSPALMAASPGEKVTITCSVSSSISSSNLHWFQQKSGTSPKLWIYGTSNLASGVPVRFSGSGSGTSYSLTISSMEAEDAATYYCQQWSSYPFTFGSGTKLEIK | binds | binds
8 | P13C08 Fab (Fab, V domains shown, Murine Fab, periplasmic extract) VH: QVQLKQSGAELVKPGASVKLSCTASGFNIKDNYIHWVKQRPEQGLEWIGSIDPANGNTKYDPKFQGKASITADTSSNTAYLQLSSLTSEDTAVYYCASYFYRYDVGGFDYWGQGTTLTVS VL: DVVMTQTPALMAASPGEKVTITCSVSSSISSSNLHWFQQKSGTSPKLWIYGTSNLASGVPVRFSGSGSGTSYSLTISSMEAEDAATYYCQQWSSYPFTFGSGTKLEIK | binds | binds
